Assay results from patent US12012599B2, “Compositions and methods for modulating left-right differentiation factor (LEFTY) and bone morphogenic factor (BMP)” (CZ Biohub SF LLC, priority 2018, dated 2024).

B1: LEFTY1: left-right determination factor 1, secreted TGF-β superfamily protein; generic LEFTY may mean LEFTY1 or LEFTY2 (protein, UniProt O75610 77-366, looked up)
Left-right determination …: RFSQSFREVAGRFLALEASTHLLVFGMEQRLPPNSELVQAVLRLFQEPVPKAALHRHGRLSPRSARARVTVEWLRVRDDGSNRTSLIDSRLVSVHESGWKAFDVTEAVNFWQQLSRPRQPLLLQVSVQREHLGPLASGAHKLVRFASQGAPAGLGEPQLELHTLDLGDYGAQGDCDPEAPMTEGTRCCRQEMYIDLQGMKWAENWVLEPPGFLAYECVGTCRQPPEALAFKWPFLGPRQCIASETDSLPMIVSIKEGGRTRPQVVSLPNMRVQKCSCASDGALVPRRLQP
B2: BMP7: bone morphogenetic protein 7, BMPR2 ligand (protein)
chain: STGSKQRSQNRSKTPKNQEALRMANVAENSSSDQRQACKKHELYVSFRDLGWQDWIIAPEGYAAYYCEGECAFPLNSYMNATNHAIVQTLVHFINPETVPKPCCAPTQLNAISVLYFDDSSNVILKKYRNMVVRACGCH

Columns and labels:
Format in all cases: in vivo, mouse
[1] = test system: mammary epithelial cells; test: Mammary outgrowth formation on transplantation (ELDA); settings: primary transplantation
Source text: FIGS. 10A-10G. Mammary epithelial cells rely on LEFTY1 for their long-term proliferation potential. FIG. 10A is a schematic representation of the procedure used to inject control, LEFTY1- or BMP7-expressing mammary fibroblasts into the proximity of the mammary gland of 14-18 weeks old NSG female mice. Two to three weeks later, the mammary epithelial cells were isolated and injected in a limiting dilution fashion into weaning age […] mice to assess their engraftment potential. […] The next day, the transduced cells were injected in the cleared fat-pads of weaning age mice in order to test their exogenous mammary epithelial repopulation ability. […]
FIGS. 11A-11F. […] The number of positive outgrowths from the total of transplanted glands are shown, as well as the frequency and 95% CI of engrafting cells calculated by ELDA. […] The frequency and 95% CI was calculated using extreme limiting dilution analysis (ELDA). […]
Alteration of signaling pathways such as Wnt, Hedgehog and Notch results in branching phenotypes that may be linked to the frequency of cells that can be transplanted and originate mammary ducts in recipient mice (Lu & Werb, Science 322, 1506-1509 (2008)). We transplanted endogenous mammary epithelial cells that had been exposed to LEFTY1 or BMP7 for ^˜15 days in vivo and assessed ductal outgrowth formation upon transplantation into secondary recipients (FIG. 10A). […]

[2] = test system: pSMAD5; test: Immunofluorescent pSMAD5 positive cells in mammary glands exposed to ligand-secreting fibroblasts
Protocol: FIGS. 4A-4I. LEFTY1 inhibits the phosphorylation of SMAD2 and SMAD5 in basal mammary epithelial cells. FIGS. 4A-4C show exemplary quantification of pSMAD2 and pSMAD5 positive cells within the luminal and basal cells of mammary glands isolated from mice that were injected with control or LEFTY1-secreting L1 fibroblasts. Immunofluorescent detection of pSMAD2 or pSMAD5 proteins was used to visualize positive cells. KRT8 and SMA were used to determine the luminal or basal cells, respectively. […] Immunofluorescent detection of pSMAD2 or pSMAD5 proteins was used to visualize positive cells. KRT8 and SMA were used to determine the luminal or basal cells, respectively. FIGS. 4H-4I show representative images of the quantified sections for pSMAD2 and pSMAD5 analysis (Magnification, 400×). Data are represented as median±S.D. Statistical analysis, Student's T-test, n.s. non-significant; ****p<0.0001.
FIGS. 5A-5H. LEFTY1 inhibits pSMAD2 and pSMAD5 in the basal mammary epithelial cells. […] KRT8 was used to stain the luminal cells and SMA for basal cells (Magnification 400×). […] Gapdh was used as a housekeeping gene. […] Ten different fields were counted per condition (n=3). Data are represented as median±S.D. Statistical analysis, (a and b) Student's T-test, * p<0.05; (h) One-way ANOVA with Dunnet's adjustment, ****p<0.0001.

[3] = test system: mammary gland; test: Mammary branching after injection of LEFTY1- or BMP7-secreting L1 fibroblasts into mammary fat-pad; settings: secreted ligand from transplanted fibroblasts; whole mount staining
Protocol: FIGS. 2A-2F. Effect of LEFTY1 and BMP7 in mammary glands. […] Ducts and terminal end buds (TEB) were analyzed for BMP7 positive cells. SMA and DAPI were used to identify basal cells and for nuclear counterstain, respectively (Magnification 200×). […] Ducts and terminal end buds (TEB) were analyzed for LEFTY1 positive cells. SMA and DAPI were used to identify basal cells and for nuclear counterstain, respectively (Magnification 200×). […] Four to seven images per mouse were analyzed for quantification. […] Four to seven images per mice were analyzed for quantification. […] Data are represented as median±S.E.M. Statistical analysis, Student's T-test, *p<0.05; ***p<0.001.
FIGS. 3A-3C. Effects of LEFTY1 and BMP7 on the morphology of the mouse mammary gland. […] Four to seven images per mouse were analyzed for quantification. […] Four to seven images per mouse were analyzed for quantification. Data are represented as median±S.E.M. Statistical analysis, Student's T-test, *p<0.05; **p<0.01; ****p<0.0001.
We first developed a system where transplantation of engineered non-autologous mammary fibroblast cells secreted particular ligands (FIG. 2C). […] These opposing results were unexpected, since both LEFTY1 and BMP7 have been described to have similar suppressive roles on NODAL/SMAD2/3 signaling (Chen et al., Current biology: CB 14, 618-624 (2004) and Yeo et al., Molecular cell 7, 949-957 (2001)).

Molecule | frequency of ductal outgrowths [1] | pSMAD5 in basal cells [2] | pSMAD5 protein levels in luminal cells [2] | extent and number of mammary tree branches [3]
B1 | significantly increased | significant decrease | significant decrease | significant localized increase
B2 | did not affect | significant increase | no effect | decreased
